Reference: article PMC9263169, “Aptamer-antibody hybrid ELONA that uses hybridization chain reaction to detect a urinary biomarker EN2 for bladder and prostate cancer”

T1: EN2 (Engrailed-2), recombinant (human, UniProt P19622 1-333)
T1 sequence: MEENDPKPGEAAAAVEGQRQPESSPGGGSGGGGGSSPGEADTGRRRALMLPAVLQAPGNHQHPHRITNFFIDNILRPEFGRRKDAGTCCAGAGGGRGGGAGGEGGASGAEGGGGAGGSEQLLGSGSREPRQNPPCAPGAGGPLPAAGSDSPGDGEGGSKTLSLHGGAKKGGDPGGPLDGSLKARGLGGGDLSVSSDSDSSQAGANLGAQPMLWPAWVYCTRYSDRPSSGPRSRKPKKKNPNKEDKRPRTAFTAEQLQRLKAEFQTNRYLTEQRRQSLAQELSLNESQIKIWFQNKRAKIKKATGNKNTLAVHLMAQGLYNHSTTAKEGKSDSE


Key:
[1] = biological target: T1, EN2 (Engrailed-2), recombinant; assay: plate fluorescence binding (EN2 immobilized); signal saturates at 250 nM EN2; 20 mM Tris-HCl, 50 mM NaCl, 5 mM KCl, 5 mM MgCl2, pH 8.0, room temperature, 1 h; conditions: protein: recombinant; tags: N-terminal His (pET28a); label: 5'-FAM; hairpin
[2] = biological target: T1, EN2 (Engrailed-2), recombinant; assay: magnetic-bead fluorescence assay (His-EN2 on NTA beads); 5 mM Mg2+; 20 mM Tris-HCl, 50 mM NaCl, 5 mM KCl, 5 mM MgCl2, pH 8.0, room temperature, 1 h; conditions: protein: recombinant; tags: N-terminal His (pET28a); label: 5'-FAM

| Binder | binding result [1] | Kd [2] [nM] |
| --- | --- | --- |
| CGCATAATTACCTCCAGAAGGAGAGGTAATTATGCG (structured_DNA) [EN2 motif hairpin DNA] | binds |  |
| AGCGGATCCGAGGTGAGGAGCGCCGGTGAGACTCCTTCATTCTATCTGCT (structured_DNA) [EBA (trimmed H90)] |  | 8.26 |
